Experimental data published in publication doi:10.64898/2025.12.16.694761.

Target: Nitrous oxide reductase NosZ (clade I) of Trinickia sp. Z7 (Trinickia sp. Z7)
Assay: cryo-EM structure

stoichiometry N: 2
Substance: Nitrous oxide reductase NosZ (clade I) of Trinickia sp. Z7 (enzyme)
